# Assay: soluble on expression in E. coli; label from the status in PepcDB or PDB records
row,Sequence,soluble on expression in E. coli
1,MNSIQIADETYVAADAARVSAAVADRCSWRRWWPDLRLQVTEDRADKGIRWTVTGALTGTMEIWLEPSMDGVLLHYFLHAEPTGVAAWQLARMNLARMTHHRRVAGKKMAFEVKTVLERSRPIGVSPVT,not soluble
2,GHLDDNVTQEDIQAMLQEGSSAGVIEHNEHAMVKNVFRLDERTISSLMVPRSDIVFLDLNLPLDANLRTVMQSPHSRFPVCRNNVDDMVGIISAKQLLSESIAGERLELVDLVKNCNFVPNSLSGMELLEHFRTTGSQMVFVVDEYGDLKGLVTLQDMMDALTGEFFQEDGS,soluble
3,MSLDETPTIHILWINAGLSCDGDSVALTAAMQPSIEEIVLGVLPGLPKIAVHWPLIDFECGPVGGSDTFIEWFFKGERGEIDPFVLVVEGSIPNESIKPEGYWCGFGDNPETGQPITTSEWIDRLAPKALAVVAIGTCATYGGIHAMAGNPTGAMGVPDYLGWDWKSQAGIPIVCVPGCPIQPDNFSETLTYLLYQAAGAAPMIPLDDKLRPTWLFGATEGHHHHHH,soluble
4,MGSDKIHHHHHHMKRLAFVISSLGAGGAEKVLSLMSHYLAQKGISLTLISLGDSKSFYPLPAQAKIIALGECRSSKGVIDSLFQNLRRIQKLRQALRAARPDLILSFMTETNILSIIAAKSLGIPVIASEHTNYLWQPSRLWNRLRHLLYPLASATTLLTQRDKENHYGFLPQAKILPNPFDFPPLSPTPKEKIILGVGRLIKDKGFDRLIRAFSRISIGDYQLLIAGEGEERVRLEELIQSLGMEEKIHLLGSQKEIYPLYERASIFVLSSSMEGLSNALIEAMSMGCAVISFDCPYGPSEVITPQENGLLVPLHDEVALQEAMERLIQEEPLRQKLSQNAPKVRERFAIDRVMPQWEELMRSILDSTPSCSKES,not soluble
5,MKAWEIARKPRVVVYPGDPLTYVRAMMRREEEPIAVVVVESEKSEKVVGYITWNEVIQVTSHYSHLRAKDAMLDYPVAFKDDDIGDVYKRMVEEKVYAIPVLESRDNPNLVGVVTVADIVRALRRAGFK,not soluble
6,MQALQERLEKLENATGSEVWEVLKASEPELRQDLSSLQKLKADKESAAREALTALKTKKNELKNLKNDVESLKNEYKTYIEMVENGLKQSGLDIKQVVQVFERVLEESLSEKRLAILSTIDSAHISDIKSIKTPVKSILKLLEDPNKLQLRILVQSELREFSNSAIEIFRRSLWDLFQNQGIPMKNLGEMPNSEDFLQKIGELFQFSTDLDKLIAGNWGKSIENLISAAFGQLSNYCIDIIENERGEADFEWILKSSHDWAKNLSQILQKTVEKSNLESELKQEFEEKFNEKFVDFIKLITRKFLEKNIKEPTIFSNVAQMLKKFKISSEFNLSGDRDLQEPFYEPKFMSRWILVYYIVAKISEYPVLTQLFAPLKITVVSKKIFFF,not soluble
7,MPQSYIVRTMRPADVEAVLRVQAAVYPASLLESAALFQNRIEIAPATCQVALDGQDLIGYLIAYPWDAGLPPALDRSLERLPGAADTWFVHDCAVLPAAQGGGVAAALLAGGRAQARRLGLRRASLVALAPAVGYWLRHGYQPLADSDALRAKLAGYGDGARYMVRADLAG,not soluble
8,MASTSTGLPPNWTIRVSRSHNKEYFLNQSTNESSWDPPYGTDKEVLNAYIAKFKNNGYKPLVNEDGQVRVSHLLIKNNQSRKPKSWKSPDGISRTRDESIQILKKHLERILSGEVKLSELANTESDCSSHDRGGDLGFFSKGQMQPPFEEAAFNLHVGEVSNIIETNSGVHILQRTG,soluble
9,MAHHHHHHMTHTGAAAASGASASTLSSQSTAAVASDDAFSEQHQGQKQRNLLRCFALADLLGVSPTVVQQLANAAATPSSSLHHARNTSRASSHCSTESDPVIRAYQLEQILVAAVVKQLFDRCCDPDQSIQNGGSVDAGQPAASSVSTTARQPARKHQPSSLKAPPWSAALSEPRRACTSPQQPDGERLLPSVLSSPQGVARVDALHASFLPLLLVALLQRVSEGSGGDTQATDATVPRQTPDTNAAASNTSAAVFSLRQQRSFRTALHQLLPLYTPLLLQRRRAARAVVSSVVVALQEYPCSGHDDGESTTEEEESRKRIQRLVHQGLCCSEVKQWLHAARLLSDTLVACLSHVSPRASIAATAPPPAIRRRRGGRGRFDGGAVDTGDGRGVAECGRDAPPRWRVGGGGAASVRSLVVGIRYERFEWCRAARARRQHPCKCWGPNEPTRAVHHHHHCRGARACRGHVYRRRGDVRRHLAPRGWPFWRTAAAATVELCSCWWSHSADTTRCTDTLSR,not soluble
10,MAPVLENRRARHDYEILETYEAGIALKGTEVKSLRAGKVDFTGSFARFEDGELYLENLYIAPYEKGSYANVDPRRKRKLLLHKHELRRLLGKVEQKGLTLVPLKIYFNERGYAKVLLGLARGKKAYEKRREDKKEAVRRALEEL,soluble
11,MSLKNLGSPVFFFQERPGKDGKPFKMVKFRSMRDALDSDGIPLPDGERLTPFGKKLRAASLDELPELWNILKGEMSLVGPRPLLMQYLPLYDNFQNRRHEMKPGITGWAQVNGRNALSWDEKFACDVWYIDHFSLCLDIKILLLTVKKVLIKEGISAQGEATMPPFTGKRKLAVVGAGGHGKVVADLAAALGRYREIVFLDDRAQGSVNGFSVIGTTLLLENSLSPEQYDVAVAVGNNRIRRQIAEKAAALGFALPVLVHPDATVSPSATVGQGSVVMAKAVVQAGSVLKDGVIVNTAATVDHDCLLNAFVHISPGAHLSGNTHIGEESWIGTGACSRQQIRIGSRATIGAGAVVVRDVSDGMTVAGNPAKPLPRKNPETSTAEGHHHHHH,not soluble
12,MVLAGGVGKRLLPLTRERPKPYLPLAGKPLYMYAVEQVAMVRSLLDRAVMVTPPGHPTPPGSLPSWLDTVEQQGEGVEAGLATALKRLGGGEEVVVSFVGYLARPNTLVRHVLDFYSVTRYKLVLALAPVTRGSESFGFVDADPSTGRVLGFSGSREEWMAGRGRVFAGVLAGDPEALEVLAGEGFVEGINTLARRGLVGSVVWPGEWLEVGYPCDLLEAPRLVVEAWAAVISAKARVARSSVIQGGVVIEEDAEVGEGAVVEGPAYLGRGAVVGRNSVVGPGVVLEEGAVVGDLVSIERSVMLERAEASGPSRLEGVVIGDGAYIAPLAAATNREGCTVVAPKTRLGPRATLEPGKTYTLEHHHHHH,not soluble
13,MGSDKIHHHHHHMQFNKPLRQGVLQKRYKRFLADIDFGDNETTTTHCPNTGAMTGCAEPGFTAWCSVSDNPKRKYSLTWELAQNNNGEMIVVNTQHANRMAGELLQTNLVPELSQWQELKPEQRYGKEKSRIDWWGVDQHNRECFIEVKSVTLADASQGYFPDAVSQRAHKHLNELMQVVADGHRAVQLYMVMHDGIERVSPAAHIDSQYAELCRKAASVGVEFYAVKCRASAKEIKLERPVPVSL,not soluble
14,MKKVYIKTFGCQMNEYDSDKMADVLGSAEGMVKTDNPEEADVILFNTCSVREKAQEKVFSDLGRIRPLKEANPDLIIGVGGCVASQEGDAIVKRAPFVDVVFGPQTLHRLPDLIESRKQSGRSQVDISFPEIEKFDHIPPAKVDGGAAFVSIMEGCSKYCSFCVVPYTRGEEVSRPFEDVLTEIAGLAAQGVKEITLLGQNVNAYRGLMSDGEIADFALLLEYVHEVPGVERIRFTTSHPREFSQRIIDCYAKLPKLVSHLHLPVQSGSDRVLMAMKRGYTGLEYKSIIRKLRAIRPDLCLSSDFIIGFPGETEADFEQTLKLVRDCEFDFSFVFIYSPRPGTPAANLPDDTPHAEKVRRLEALNEVIEAKGYAINQSMVGTVQRVLVENVSKKDATMLAARTANNRVVNFAGHPRLLGRMIEVKITAAFPHSLAGEALTSESALEHHHHHH,soluble
15,GMSSSGTSITCEVGLQLIVPDRAPVPLVARLDYSVDDPYAIRAAFHVGDDEPVEWIFARELLTVGIIRETGEGDVRIWPSQDGKERMVNIALSSPFGQARFHAQVAPLSEFLHRTYELVPAGQESDYIDIDAEIAEHLS,soluble
16,MCNLTIHNIENYENDPQLRLIPWILWENLFQHFISANELSLMTLSYKEAIHIFLPGTKNMEQVRQLLCLYYAHYNRNAKQLWSDAHKKGIKSEVICFVAAITGCSSALDTLCLLLTSDEIVKVIQAENYQAFRLAAENGHLHVLNRLCELAPTEIMAMIQAENYHAFRLAAENGHLHVLNRLCELAPTEATAMIQAENYYAFRWAAVGRGHHNVINFLLDCPVMLAYAEIHEFEYGEKYVNPFIARHVNRLKEMHDAFKLSNPDGVFDLVTKSECLQGFYMLRNLIRRNDEVLLDDIRFLLSIPGIKALAPTATIPGDANELLRLALRLGNQGACALLLSIPSVLALTKANNYYINETGGRLDLRAVALEHHHHHH,soluble
17,MGSDKIHHHHHHMDLRGRLIPDYRIDTPVDAPLEYRPAVTWRCERCGKLPTRGPCTCGKRCYYCRHCLIFGKLRTCDRLVTDPRPLDPVRPDHHTELNLTSDQQRIAEAIVRTIDQRKRLLVHAVCGAGKTPMLFPGIERALSTNRRVLITAPRADVVRELTGHLRRAFQQATIVSLFGGSEDRLGIGDITISTTHQLIHYRACFDVVFIDEVDAFPYRTDRTLHRYVRQATAPGASLILLSATPSLRDRRLPTVRLMRRYHGFPLPTPRLQVPYGKHDVVDWVLTHAGKPRLLFVPQVEALETWQTCLQQQGITCETVHAADPDRITKVARFRQTTGVLLTTTILERGVTLINVQVAVLDADHSFSSAALIQISGRVGRSADFPEGDVVLFANDRSDAMYEAIDHIKRANREGFR,not soluble
18,MRIDPFKLAHWMNARKYTAAQTADLAGLPLDDLRRLLGDEANEPDPAAATALAEALSVEPSQLAADAHRNLTVVHKSAEEMHASRRPIQRDGIHFYNYYTLAAPEGRVAPVVLDILCPSDRLPALNNGHLEPAITVNLGPGDINGRWGEEITPQTWRVLHANHGGDRWITGDSYVEPSYCPHSYSLAGDAPARIVSYTAQSNISPLMTEANNWSTGAFEEALKALSGKVSAGSVLDLFLARRAHTRTSAAEAAGVPPADLEAALRSPASETGLTVLRTLGRALGFDYRVLLPADDQHDGVGKTWTTIEDSRRSRRTFGTYEAASMASAAHLPDLVGSFLRVDADGRGADLIDHAENHYVVTEGRLTLEWDGPDGPASVELEPDGSAWTGPFVRHRWHGTGTVLKFGSGAHLGYQDWLELTNTFEPAATLRRGRRDLAGWGYDN,soluble
19,MGSDKIHHHHHHMQQSTPYLSFRGIGKTFPGVKALTDISFDCYAGQVHALMGENGAGKSTLLKILSGNYAPTTGSVVINGQEMSFSDTTAALNAGVAIIYQELHLVPEMTVAENIYLGQLPHKGGIVNRSLLNYEAGLQLKHLGMDIDPDTPLKYLSIGQWQMVEIAKALARNAKIIAFDEPTSSLSAREIDNLFRVIRELRKEGRVILYVSHRMEEIFALSDAITVFKDGRYVKTFTDMQQVDHDALVQAMVGRDIGDIYGWQPRSYGEERLRLDAVKAPGVRTPISLAVRSGEIVGLFGLVGAGRSELMKGMFGGTQITAGQVYIDQQPIDIRKPSHAIAAGMMLCPEDRKAEGIIPVHSVRDNINISARRKHVLGGCVINNGWEENNADHHIRSLNIKTPGAEQLIMNLSGGNQQKAILGRWLSEEMKVILLDEPTRGIDVGAKHEIYNVIYALAAQGVAVLFASSDLPEVLGVADRIVVMREGEIAGELLHEQADERQALSLAMPKVSQAVA,not soluble
20,MTIYLVRHGESKSNYDNKHFRSYFCGQLDVPLTDTGTKSADDLCDYFKEKQIKHVYVSDLLRTQQTFEHIFPYDIASTTTPLLRERSLGVFEGEYKDEISANPKYEKYFNDPNFKDFRHSFSQKAPEGESYEDVYQRVEHFMNHVVNEDTQKDDIVIVAHQVVIRCLMVYFNKVSRAEAVDLKVENCKPYIIE,not soluble
